Assay results reported in the supplement of paper PMC10567573.

B1: HMOX1 (parent)
chain: YHIYVALEEEIERNKESPVFAPVY

Variants of: B1
Experiment: protein stability index of a GFP-peptide fusion (GPS, HEK-293T) (PSI 1-6); higher = more stable
Details: c terminus: a fixed tail appended
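Also: lentivirally expressed fusions sorted by FACS into six bins by GFP to DsRed ratio, PSI derived from sequencing read proportions per bin multiplied by bin number.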

| Variant | protein stability index |
| --- | --- |
| Y1T | 3.71 |
| Y1V | 1.67 |
| Y1W | 2.59 |
| H2A | 2.34 |
| H2C | 1.73 |
| H2D | 3.19 |
| H2E | 3.12 |
| H2F | 2.25 |
| H2G | 2.57 |
| H2I | 1.51 |
| H2K | 2.61 |
| H2L | 2.17 |
| H2M | 2.17 |
| H2N | 2.7 |
| H2P | 2.62 |
| H2Q | 3.32 |
| H2R | 2.72 |
| H2S | 2.46 |
| H2T | 2.18 |
| H2V | 2.59 |
| H2W | 1.38 |
| H2Y | 1.89 |
| I3A | 1.42 |
| I3C | 3.57 |

| Variant | protein stability index |
| --- | --- |
| I3D | 2.27 |
| I3E | 2.33 |
| I3F | 2.91 |
| I3G | 2.77 |
| I3H | 2.29 |
| I3K | 1.91 |
| I3L | 1.92 |
| I3M | 1.77 |
| I3N | 2.12 |
| I3P | 2.06 |
| I3Q | 2.27 |
| I3R | 2.43 |
| I3S | 2.26 |
| I3T | 1.92 |
| I3V | 2.18 |
| I3W | 2.12 |
| I3Y | 1.91 |
| Y4A | 2.34 |
| Y4D | 2.29 |
| Y4E | 2.09 |
| Y4F | 4.8 |
| Y4G | 1.64 |
| Y4H | 2.01 |
| Y4I | 1.49 |

| Variant | protein stability index |
| --- | --- |
| Y4K | 2.41 |
| Y4L | 2.26 |
| Y4M | 1.36 |
| Y4N | 2.03 |
| Y4P | 1.78 |
| Y4Q | 2.35 |
| Y4R | 1.57 |
| Y4S | 1.58 |
| Y4T | 1.59 |
| V5A | 3.79 |
| V5C | 1.79 |
| V5D | 4.82 |
| V5E | 4.87 |
| V5F | 1.63 |
| V5G | 2.23 |
| V5H | 2.34 |
| V5I | 1.94 |
| V5K | 3.47 |
| V5L | 2.29 |
| V5M | 2.79 |
| V5N | 3.59 |
| V5P | 2.43 |
| V5Q | 3.94 |
| V5R | 3.13 |

| Variant | protein stability index |
| --- | --- |
| V5S | 2.67 |
| V5T | 3.39 |
| V5W | 2.12 |
| V5Y | 1.47 |
| A6C | 1.64 |
| A6D | 1.81 |
| A6E | 1.88 |
| A6F | 3.88 |
| A6H | 3.14 |
| A6I | 2.02 |
| A6K | 2.42 |
| A6L | 2.1 |
| A6M | 2 |
| A6N | 1.59 |
| A6P | 1.99 |
| A6Q | 2.42 |
| A6R | 1.7 |
| A6S | 1.74 |
| A6T | 1.82 |
| A6V | 3.22 |
| A6W | 2.2 |
| A6Y | 2.62 |
| L7A | 2.34 |
| L7C | 2.75 |

| Variant | protein stability index |
| --- | --- |
| L7D | 2.03 |
| L7E | 1.76 |
| L7F | 1.97 |
| L7G | 2.48 |
| L7H | 1.49 |
| L7I | 1.76 |
| L7K | 2.2 |
| L7M | 1.62 |
| L7N | 1.88 |
| L7P | 1.59 |
| L7Q | 2.16 |
| L7R | 1.67 |
| L7S | 1.56 |
| L7T | 1.88 |
| L7V | 2.93 |
| L7W | 2.2 |
| L7Y | 2.02 |
| E8A | 2.31 |
| E8D | 1.53 |
| E8F | 2.43 |
| E8G | 3.48 |
| E8H | 2.18 |
| E8I | 2.51 |
| E8K | 2.07 |

| Variant | protein stability index |
| --- | --- |
| E8L | 2.49 |
| E8M | 4.06 |
| E8N | 1.94 |
| E8P | 2.49 |
| E8Q | 3.23 |
| E8R | 2.42 |
| E8S | 3.74 |
| E8T | 2.19 |
| E8V | 2.3 |
| E8Y | 1.05 |
| E9A | 1.91 |
| E9D | 1.88 |
| E9F | 2.43 |
| E9G | 2.06 |
| E9H | 1.58 |
| E9I | 1.62 |
| E9K | 2.14 |
| E9L | 2.57 |
| E9M | 1.72 |
| E9N | 2.26 |
| E9P | 2.6 |
| E9Q | 1.75 |
| E9R | 2.02 |
| E9S | 1.87 |

| Variant | protein stability index |
| --- | --- |
| E9T | 1.7 |
| E9Y | 1.98 |
| E10A | 2.59 |
| E10C | 1.93 |
| E10D | 2.93 |
| E10F | 1.78 |
| E10G | 1.54 |
| E10H | 1.97 |
| E10I | 1.74 |
| E10K | 1.99 |
| E10L | 2.27 |
| E10M | 1.77 |
| E10N | 3.21 |
| E10Q | 2.7 |
| E10R | 1.56 |
| E10S | 2.81 |
| E10T | 2.83 |
| E10V | 1.92 |
| E10W | 1.26 |
| E10Y | 2 |
| I11A | 1.31 |
| I11C | 2.46 |
| I11D | 1.58 |
